This is an account of results in patent US20220025056A1 (INNATE PHARMA, published 2022).

The target of one assay is T1, ILT2 mutant 2 (human, UniProt Q8NHL6 24-650).
T1 construct: transfected in HEK293T cells; also called M2
Description: flow cytometry, ILT2 point mutants. Background: A flow cytometer gives signals particle by particle.

The target in assay [1] is T2, human ILT6 (LILRA3) on CHO cells (human, UniProt Q8N6C8 24-434).
T2 construct: also called CHO ILT6 cell line; human ILT-6 polypeptide
T2 sequence (Q8N6C8 other isoform, or with tags, fused parts or gaps): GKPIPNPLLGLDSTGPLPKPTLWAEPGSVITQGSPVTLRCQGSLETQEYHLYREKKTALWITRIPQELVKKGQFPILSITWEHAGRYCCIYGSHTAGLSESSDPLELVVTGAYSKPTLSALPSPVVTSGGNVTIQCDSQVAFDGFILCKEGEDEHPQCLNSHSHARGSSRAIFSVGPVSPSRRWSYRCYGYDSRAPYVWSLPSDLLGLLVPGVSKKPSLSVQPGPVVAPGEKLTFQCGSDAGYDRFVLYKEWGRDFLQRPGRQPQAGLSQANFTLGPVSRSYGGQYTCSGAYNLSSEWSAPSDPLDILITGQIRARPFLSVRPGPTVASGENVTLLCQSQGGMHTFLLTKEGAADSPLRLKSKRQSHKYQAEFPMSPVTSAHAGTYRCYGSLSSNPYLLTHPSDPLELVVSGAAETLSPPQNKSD
Description: flow cytometry, CHO transfectants.

Assay [2] deals with T3, biotinylated BirA-tagged ILT2 protein tetramerised on APC-conjugated streptavidin (human, UniProt Q8NHL6 24-458, limits assumed, 1 biotin molecule per ILT2 protein (BirA tag)).
T3 construct: ratio 1 streptavidin per 4 ILT2 protein; streptavidin-APC not written as a chain; also called ILT2-SA tetramers; recombinant biotinylated ILT2
T3 sequence (Q8NHL6 24-458 limits assumed): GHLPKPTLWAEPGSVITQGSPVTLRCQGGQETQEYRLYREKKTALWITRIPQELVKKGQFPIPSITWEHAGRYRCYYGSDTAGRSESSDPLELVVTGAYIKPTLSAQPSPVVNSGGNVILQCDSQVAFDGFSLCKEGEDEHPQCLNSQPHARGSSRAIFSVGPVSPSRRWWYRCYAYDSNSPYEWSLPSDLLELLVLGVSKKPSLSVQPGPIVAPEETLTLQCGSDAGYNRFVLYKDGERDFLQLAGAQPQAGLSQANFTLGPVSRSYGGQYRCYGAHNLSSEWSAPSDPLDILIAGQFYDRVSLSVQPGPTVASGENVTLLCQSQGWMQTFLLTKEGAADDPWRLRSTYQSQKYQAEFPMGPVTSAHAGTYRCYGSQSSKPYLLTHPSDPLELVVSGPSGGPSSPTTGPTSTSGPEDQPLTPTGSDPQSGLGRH
Nature of the assay: flow cytometry blocking assay: ILT2-streptavidin-APC complexes pre-incubated with antibody, then added to WIL2-NS cells expressing HLA-A2; blocked ligand HLA-A2.

Assay [3] concerns the target T4, anchored ILT2 D3-D4 domain protein (human, UniProt Q8NHL6 223-650).
T4 construct: on CHO cells; the entry includes leader remnant, V5 tag, and the ILT2 transmembrane and cytoplasmic parts
Description: flow cytometry, CHO cells with anchored ILT2 domain proteins.

Assay [4] addresses T5, anchored ILT2 D2-D3 domain protein (human, UniProt Q8NHL6 122-321).
T5 construct: on CHO cells; the entry includes leader remnant, V5 tag and CD24 GPI anchor signal
The assay is described as above.

The target of assay [5] is T6, anchored ILT2 D2-D3-D4 domain protein (human, UniProt Q8NHL6 122-650).
T6 construct: on CHO cells; the entry includes leader remnant, V5 tag, and the ILT2 transmembrane and cytoplasmic parts
T6 sequence (Q8NHL6 other isoform, or with tags, fused parts or gaps limits assumed): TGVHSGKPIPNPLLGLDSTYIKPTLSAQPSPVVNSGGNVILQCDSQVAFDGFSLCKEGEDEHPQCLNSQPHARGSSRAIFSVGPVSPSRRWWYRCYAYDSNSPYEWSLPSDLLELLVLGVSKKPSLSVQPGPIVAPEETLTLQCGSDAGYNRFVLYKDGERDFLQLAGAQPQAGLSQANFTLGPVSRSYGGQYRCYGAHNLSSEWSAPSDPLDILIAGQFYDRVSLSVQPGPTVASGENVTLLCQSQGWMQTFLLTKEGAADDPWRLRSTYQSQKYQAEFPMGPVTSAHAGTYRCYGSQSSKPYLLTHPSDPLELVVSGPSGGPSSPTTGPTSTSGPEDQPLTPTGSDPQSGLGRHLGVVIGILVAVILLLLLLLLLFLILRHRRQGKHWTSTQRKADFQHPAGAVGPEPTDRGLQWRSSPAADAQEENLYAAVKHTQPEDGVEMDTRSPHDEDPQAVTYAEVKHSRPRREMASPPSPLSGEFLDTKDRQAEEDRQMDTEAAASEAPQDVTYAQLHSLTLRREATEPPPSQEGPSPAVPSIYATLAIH
The description is as above.

In assay [6] the target is T7, anchored ILT2 D4 domain protein (human, UniProt Q8NHL6 322-650).
T7 construct: on CHO cells; the entry includes leader remnant, V5 tag, and the ILT2 transmembrane and cytoplasmic parts
T7 sequence (Q8NHL6 other isoform, or with tags, fused parts or gaps limits assumed): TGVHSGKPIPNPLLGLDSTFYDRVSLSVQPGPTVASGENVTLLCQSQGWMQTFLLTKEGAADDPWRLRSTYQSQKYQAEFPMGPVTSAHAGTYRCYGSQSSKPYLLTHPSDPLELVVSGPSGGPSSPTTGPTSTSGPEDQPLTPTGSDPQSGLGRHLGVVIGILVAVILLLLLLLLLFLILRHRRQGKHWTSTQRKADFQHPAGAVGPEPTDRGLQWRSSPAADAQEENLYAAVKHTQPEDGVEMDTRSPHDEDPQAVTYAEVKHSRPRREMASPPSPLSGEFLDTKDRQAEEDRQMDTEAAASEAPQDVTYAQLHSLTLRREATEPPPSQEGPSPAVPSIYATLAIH
The assay is described as above.

Assay [7] addresses T8, anchored ILT2 D2 domain protein (human).
T8 construct: on CHO cells; the entry includes leader remnant, V5 tag and CD24 GPI anchor signal
The assay is described as above.

The target in assay [8] is T9, anchored ILT2 D3 domain protein (human).
T9 construct: on CHO cells; the entry includes leader remnant, V5 tag and CD24 GPI anchor signal
T9 sequence (chain, as listed by the source limits assumed): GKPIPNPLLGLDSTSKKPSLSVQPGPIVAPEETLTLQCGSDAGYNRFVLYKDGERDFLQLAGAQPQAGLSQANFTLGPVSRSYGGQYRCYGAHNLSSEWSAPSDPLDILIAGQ
The assay is described as above.

For assay [9], the target named is T10, ILT-2_6xHis recombinant protein (human, UniProt Q8NHL6 24-458).
T10 construct: monomers purified by SEC; also called recombinant 6xHIS tagged ILT2; recombinant human ILT2 proteins
T10 sequence (Q8NHL6 other isoform, or with tags, fused parts or gaps limits assumed): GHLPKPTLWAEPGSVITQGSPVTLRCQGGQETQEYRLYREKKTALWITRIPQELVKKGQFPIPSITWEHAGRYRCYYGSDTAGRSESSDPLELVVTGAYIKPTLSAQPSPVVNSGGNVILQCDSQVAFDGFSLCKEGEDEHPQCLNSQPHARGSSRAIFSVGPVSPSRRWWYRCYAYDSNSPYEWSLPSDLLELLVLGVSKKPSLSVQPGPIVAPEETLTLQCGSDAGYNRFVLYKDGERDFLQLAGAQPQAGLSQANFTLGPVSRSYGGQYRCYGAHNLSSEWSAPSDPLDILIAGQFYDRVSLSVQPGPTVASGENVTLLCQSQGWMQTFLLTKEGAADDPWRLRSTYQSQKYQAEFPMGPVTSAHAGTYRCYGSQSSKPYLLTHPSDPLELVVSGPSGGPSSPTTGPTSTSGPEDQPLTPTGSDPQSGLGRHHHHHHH
Description: SPR, antibody captured on Protein-A, soluble ILT2 analyte; 1:1 Binding. Here is the method:
Measurements were performed on a Biacore T200 apparatus (Biacore GE Healthcare) at 25° C. In all Biacore experiments HBS-EP+(Biacore GE Healthcare) and NaOH 10 mM served as running buffer and regeneration buffer respectively. Sensorgrams were analyzed with Biacore T100 Evaluation software. Protein-A was purchased from (GE Healthcare). Human ILT2 recombinant proteins were cloned, produced and purified at Innate Pharma. Protein-A proteins were immobilized covalently to carboxyl groups in the dextran layer on a Sensor Chip CM5. The chip surface was activated with EDC/NHS (N-ethyl-N′-(3-dimethylaminopropyl) carbodiimidehydrochloride and N-hydroxysuccinimide (Biacore GE Healthcare)). Protein-A was diluted to 10 μg/ml in coupling buffer (10 mM acetate, pH 5.6) and injected until the appropriate immobilization level was reached (i.e. 600 RU). Deactivation of the remaining activated groups was performed using 100 mM ethanolamine pH 8 (Biacore GE Healthcare). […] For blank subtraction, cycles were performed again replacing ILT2 proteins with running buffer. The monovalent affinity analysis was conducted following a regular Capture-Kinetic protocol as recommended by the manufacturer (Biacore GE Healthcare kinetic wizard). Seven serial dilutions of human ILT2 proteins, ranging from 1.95 nM to 250 nM were sequentially injected over the captured antibodies and allowed to dissociate for 10 min before regeneration. The entire sensorgram sets were fitted using the 1:1 kinetic binding model or two state reaction model, as a function of the profile of the curves.
A general note: SPR reads the build-up and loss of mass on a sensor chip optically.

T5 sequence (Q8NHL6 other isoform, or with tags, fused parts or gaps limits assumed): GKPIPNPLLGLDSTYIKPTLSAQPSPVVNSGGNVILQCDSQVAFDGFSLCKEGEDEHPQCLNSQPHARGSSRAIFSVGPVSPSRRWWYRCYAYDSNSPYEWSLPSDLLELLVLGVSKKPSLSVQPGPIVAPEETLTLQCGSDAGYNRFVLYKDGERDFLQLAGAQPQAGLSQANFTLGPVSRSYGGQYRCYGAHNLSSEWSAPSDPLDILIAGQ
T8 sequence (chain, as listed by the source limits assumed): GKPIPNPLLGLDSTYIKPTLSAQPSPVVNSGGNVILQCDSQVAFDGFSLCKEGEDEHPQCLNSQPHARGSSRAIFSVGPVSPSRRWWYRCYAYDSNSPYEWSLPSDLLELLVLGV
T1 sequence (Q8NHL6 other isoform, or with tags, fused parts or gaps mutant): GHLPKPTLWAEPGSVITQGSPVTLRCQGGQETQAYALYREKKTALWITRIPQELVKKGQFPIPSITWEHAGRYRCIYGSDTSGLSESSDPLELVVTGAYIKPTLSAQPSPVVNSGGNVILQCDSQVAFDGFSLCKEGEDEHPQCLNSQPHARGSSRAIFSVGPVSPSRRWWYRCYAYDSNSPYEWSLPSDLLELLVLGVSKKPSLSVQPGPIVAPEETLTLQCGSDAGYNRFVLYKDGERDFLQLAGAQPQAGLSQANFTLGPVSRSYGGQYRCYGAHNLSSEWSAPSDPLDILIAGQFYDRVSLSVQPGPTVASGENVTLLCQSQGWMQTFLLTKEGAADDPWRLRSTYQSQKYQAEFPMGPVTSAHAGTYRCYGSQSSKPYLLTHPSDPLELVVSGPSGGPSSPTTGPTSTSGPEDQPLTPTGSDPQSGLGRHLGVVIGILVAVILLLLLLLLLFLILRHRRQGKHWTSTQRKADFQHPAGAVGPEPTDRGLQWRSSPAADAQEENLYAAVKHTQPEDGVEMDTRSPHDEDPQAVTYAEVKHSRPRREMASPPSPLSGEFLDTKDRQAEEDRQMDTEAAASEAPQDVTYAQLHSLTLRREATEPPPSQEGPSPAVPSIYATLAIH
T4 sequence (Q8NHL6 other isoform, or with tags, fused parts or gaps limits assumed): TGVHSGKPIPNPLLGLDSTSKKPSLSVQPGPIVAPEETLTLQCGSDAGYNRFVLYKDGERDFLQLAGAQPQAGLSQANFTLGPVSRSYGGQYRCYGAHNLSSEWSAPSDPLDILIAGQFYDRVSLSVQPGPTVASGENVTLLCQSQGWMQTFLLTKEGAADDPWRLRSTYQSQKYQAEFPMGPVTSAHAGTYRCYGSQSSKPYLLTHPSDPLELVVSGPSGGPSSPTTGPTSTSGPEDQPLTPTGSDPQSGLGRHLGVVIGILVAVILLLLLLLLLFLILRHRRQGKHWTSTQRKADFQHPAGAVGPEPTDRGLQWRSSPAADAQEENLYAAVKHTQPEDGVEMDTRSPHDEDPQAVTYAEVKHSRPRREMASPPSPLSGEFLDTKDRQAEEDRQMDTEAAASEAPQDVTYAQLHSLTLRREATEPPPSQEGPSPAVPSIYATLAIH

B1: 48F12 (antibody, human IgG1, V domains shown)
VH: QVQLKESGPGLVAPSQSLSITCTVSGFSLTSYGVSWVRQPPGKGLEWLGIIWGDGSTNYHSALVSRLSISKDNSKSQVFLKLNSLQTDDTATYYCAKPNWDYYAMDYWGQGTSVTVSS
VL: DIQMTQTTSSLSASLGDRVTISCRASQDISNYLNWYQQKVDGTVKLLISYTSRLHSGVPSRFSGSGSGTDYSLTISNLEQEDIATYFCQQGITLPLTFGAGTKLELK
For orientation: Kd means a measure of binding affinity in units of concentration. A word on the koff: it is a measure of how fast the partners let go of each other. As a reminder, the kon is a measure of how fast the partners come together. In the case of B1, the binding result (in the assay with ILT2 mutant 2; in assay [1]; in assay [3]; in [4]; in assay [5]; in assay [6]) was “no binding” each time. For the same molecule, the binding result in assay [7] and in [8] was “no binding” in each case. In addition, the “IC50 (read off the curve)” value in [2] was around 0.1 µg/mL. The Kd in assay [9] is 200 pM. Also, the koff in assay [9] came to 0.0001 s⁻¹. In assay [9], the kon stood at 500000 M⁻¹ s⁻¹.
